The source of these data is PMC4678828, “Binding dynamics of a monomeric SSB protein to DNA: a single-molecule multi-process approach”.

In data set [1] the target is T1, A647-SsoSSB A114C (Sulfolobus solfataricus, UniProt Q97W73 1-148, A114C).
T1 sequence: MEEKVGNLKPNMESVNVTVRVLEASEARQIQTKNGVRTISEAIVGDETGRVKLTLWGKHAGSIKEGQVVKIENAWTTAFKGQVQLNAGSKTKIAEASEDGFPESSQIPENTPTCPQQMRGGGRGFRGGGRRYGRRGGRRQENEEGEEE
In words: single-molecule FRET/PIFE/quenching kinetics; second monomer; kon 0.16 nM-1 s-1, koff 0.31 s-1; 10 mM KCl; 50 mM Tris-HCl pH 7.6, 10 mM KCl, 5% glycerol, 0.1 mg/ml BSA, 5-50 nM DNA, 20 C (PIFE also 65 C). The note with it: protein: recombinant; chain copies: 2; label: 5' biotin, 3' Cy3; single strand.

In data set [2] the target is T1, A647-SsoSSB A114C. In words: single-molecule FRET/PIFE/quenching kinetics; S4 pathway, two monomers in one step; kon 0.006 nM-1 s-1, koff 0.33 s-1; 50 mM Tris-HCl pH 7.6, 10 mM KCl, 5% glycerol, 0.1 mg/ml BSA, 5-50 nM DNA, 20 C (PIFE also 65 C). The note with it: protein: recombinant; chain copies: 2; label: 5' biotin, 3' Cy3; single strand.
In data set [3] the target is T1, A647-SsoSSB A114C. Briefly: single-molecule FRET kinetics; first monomer; kon 0.032 nM-1 s-1, koff ~1.75 s-1; 10 mM KCl; 50 mM Tris-HCl pH 7.6, 10 mM KCl, 5% glycerol, 0.1 mg/ml BSA, 5-50 nM DNA, 20 C (PIFE also 65 C). The note with it: protein: recombinant; chain copies: 2; label: 5' biotin, 3' Cy3; single strand.
The target in data set [4] is T2, SsoSSB wild-type (Sulfolobus solfataricus (Methods print …, UniProt Q97W73 1-148)).
T2 sequence: T1 sequence with C114A
In words: tryptophan fluorescence quenching; Hill model; 50 mM Tris-HCl pH 7.6, 10 mM KCl, 5% glycerol, 0.1 mg/ml BSA, 5-50 nM DNA, 20 C (PIFE also 65 C). The following applies: protein: recombinant; chain copies: 2; single strand.

In data set [5] the target is T2, SsoSSB wild-type. Briefly: fluorescence titration (PIFE); 65 C; Hill 1.4 ± 0.2; 50 mM Tris-HCl pH 7.6, 10 mM KCl, 5% glycerol, 0.1 mg/ml BSA, 5-50 nM DNA, 20 C (PIFE also 65 C). The following applies: protein: recombinant; chain copies: 2; label: 3' Cy3 (amino); single strand.
Data set [6] deals with T1, A647-SsoSSB A114C. In words: ensemble FRET; two-site model, first monomer; 50 mM Tris-HCl pH 7.6, 10 mM KCl, 5% glycerol, 0.1 mg/ml BSA, 5-50 nM DNA, 20 C (PIFE also 65 C). The following applies: protein: recombinant; chain copies: 2; label: 3' Cy3 (amino); single strand.
The target of data set [7] is T2, SsoSSB wild-type. In words: fluorescence titration (PIFE); 20 C, 10 mM KCl; Hill 1.8 ± 0.2; 50 mM Tris-HCl pH 7.6, 10 mM KCl, 5% glycerol, 0.1 mg/ml BSA, 5-50 nM DNA, 20 C (PIFE also 65 C). The note with it: protein: recombinant; chain copies: 2; label: 3' Cy3 (amino); single strand.
Data set [8] addresses T1, A647-SsoSSB A114C. Briefly: ensemble FRET; two-site model, second monomer; 50 mM Tris-HCl pH 7.6, 10 mM KCl, 5% glycerol, 0.1 mg/ml BSA, 5-50 nM DNA, 20 C (PIFE also 65 C). The note with it: protein: recombinant; chain copies: 2; label: 3' Cy3 (amino); single strand.
In data set [9] the target is T1, A647-SsoSSB A114C. In words: ensemble FRET; Hill model, 1.8 ± 0.2; 50 mM Tris-HCl pH 7.6, 10 mM KCl, 5% glycerol, 0.1 mg/ml BSA, 5-50 nM DNA, 20 C (PIFE also 65 C). The note with it: protein: recombinant; chain copies: 2; label: 3' Cy3 (amino); single strand.
For data set [10], the target named is T1, A647-SsoSSB A114C. In words: fluorescence self-quenching titration; 10 mM KCl; Hill 1.4 ± 0.2 in text; Fig 2 legend gives 20 ± 1 nM, Hill 1.3; 50 mM Tris-HCl pH 7.6, 10 mM KCl, 5% glycerol, 0.1 mg/ml BSA, 5-50 nM DNA, 20 C (PIFE also 65 C). The note with it: protein: recombinant; chain copies: 2; single strand.

Numbering of substitutions follows the chain as printed.

B1: BidC12Cy3 (ssDNA)
DNA: CCCCCCCCCCCC
Turning to B1, the Kd was around 2 nM in [1], around 57 nM in data set [2] and 54 ± 2 nM in data set [3].

B2: dT6 (ssDNA)
DNA: TTTTTT
On to B2, for which the Kd in [4] turned out to be 143 ± 95 nM.

B3: dC12Cy3 (ssDNA)
DNA: CCCCCCCCCCCC
Regarding B3, the Kd turned out to be 15 ± 1 nM in data set [5]; 37 ± 4 nM in [6]; 9 ± 1 nM in data set [7]; 2.8 ± 1 nM in data set [8]; 24 ± 2 nM in data set [9].

B4: dC12 (ssDNA)
DNA: CCCCCCCCCCCC
As to B4, the Kd in data set [10] worked out at 22 ± 1 nM.

A word on the Kd: it is the constant that tells how readily two partners part at equilibrium.
